For the experiment, the target named is T1, ITGA6.
T1 sequence (P23229 whole entry, species assumed, looked up): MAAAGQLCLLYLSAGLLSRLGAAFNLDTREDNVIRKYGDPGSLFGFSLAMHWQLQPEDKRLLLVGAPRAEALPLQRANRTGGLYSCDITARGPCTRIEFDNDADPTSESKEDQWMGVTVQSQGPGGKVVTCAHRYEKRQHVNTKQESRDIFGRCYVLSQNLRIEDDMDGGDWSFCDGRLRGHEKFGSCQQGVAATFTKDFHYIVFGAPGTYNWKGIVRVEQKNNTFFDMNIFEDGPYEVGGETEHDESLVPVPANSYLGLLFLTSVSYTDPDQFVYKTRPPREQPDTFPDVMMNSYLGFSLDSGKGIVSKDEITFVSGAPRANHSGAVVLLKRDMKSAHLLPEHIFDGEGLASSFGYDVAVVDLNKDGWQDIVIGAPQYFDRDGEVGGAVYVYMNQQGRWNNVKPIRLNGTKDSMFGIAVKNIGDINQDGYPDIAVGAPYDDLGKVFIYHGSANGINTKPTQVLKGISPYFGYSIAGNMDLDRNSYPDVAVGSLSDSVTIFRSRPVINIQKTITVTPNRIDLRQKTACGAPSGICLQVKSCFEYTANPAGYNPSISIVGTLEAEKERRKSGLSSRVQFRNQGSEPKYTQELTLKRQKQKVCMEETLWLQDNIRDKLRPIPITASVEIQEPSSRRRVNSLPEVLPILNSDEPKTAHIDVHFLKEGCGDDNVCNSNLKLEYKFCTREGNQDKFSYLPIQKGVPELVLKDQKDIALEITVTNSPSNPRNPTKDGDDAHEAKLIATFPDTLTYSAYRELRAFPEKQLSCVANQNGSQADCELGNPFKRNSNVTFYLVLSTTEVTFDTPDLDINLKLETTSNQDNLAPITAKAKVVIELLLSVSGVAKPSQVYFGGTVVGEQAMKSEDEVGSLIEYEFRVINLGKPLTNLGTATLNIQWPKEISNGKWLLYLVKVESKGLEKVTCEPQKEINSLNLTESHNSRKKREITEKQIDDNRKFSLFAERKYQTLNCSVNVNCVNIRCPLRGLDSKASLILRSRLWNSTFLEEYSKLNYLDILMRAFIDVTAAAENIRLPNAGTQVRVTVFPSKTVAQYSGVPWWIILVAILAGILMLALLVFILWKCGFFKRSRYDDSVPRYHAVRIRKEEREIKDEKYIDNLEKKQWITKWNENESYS
The experiment is described as follows: ELISA on coated antigen, column ITGA6. On the technique in general: In an ELISA, binding on a coated surface is turned into a signal by an enzyme label.

These results are taken from US20190322750A1.

Sequence of Avelumab (antibody) (VH): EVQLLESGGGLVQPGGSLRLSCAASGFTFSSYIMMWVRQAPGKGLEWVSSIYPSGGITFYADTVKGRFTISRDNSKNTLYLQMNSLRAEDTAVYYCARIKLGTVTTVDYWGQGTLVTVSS
Sequence of Avelumab (antibody) (VL): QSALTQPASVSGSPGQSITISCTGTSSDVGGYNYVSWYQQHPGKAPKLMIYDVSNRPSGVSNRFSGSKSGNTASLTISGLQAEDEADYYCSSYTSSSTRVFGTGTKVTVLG

Substance Avelumab (antibody) gave an absorbance at 490 nm of 0.6.
